Usually pKd stands for −log10 of the Kd, conventionally taken in molar units. Low values mean a large Kd, high ones a small Kd.

pKd: −log10 of the molar value.

The text below walks through data of US20140294817A1.

In one assay the target is Fcγ-receptor I (mice) (UniProt P26151). As to the kind of experiment: flow cytometry saturation binding on HeLa cells expressing RFP-tagged FcγRI (FIG. 61A, right panel).
Another assay has as its target Fcγ-receptor IV (mice). The experiment in a line: flow cytometry saturation binding on HeLa cells expressing RFP-tagged FcγRIV (FIG. 61D, right panel).
The target of the next assay is Fcγ-receptor III (mice) (UniProt P08508). As to the kind of experiment: flow cytometry saturation binding on HeLa cells expressing RFP-tagged FcγRIII (FIG. 61C, right panel).
Sequence of Fcγ-receptor III (mice) (P08508 31-261): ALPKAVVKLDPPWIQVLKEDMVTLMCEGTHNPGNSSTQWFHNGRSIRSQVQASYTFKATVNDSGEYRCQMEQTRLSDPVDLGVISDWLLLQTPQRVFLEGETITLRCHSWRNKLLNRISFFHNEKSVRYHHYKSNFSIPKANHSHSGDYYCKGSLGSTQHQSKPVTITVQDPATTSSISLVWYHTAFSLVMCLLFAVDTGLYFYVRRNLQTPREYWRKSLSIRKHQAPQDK
The target in the next assay is Fcγ-receptor IIb (mice) (UniProt P08101). The experiment in a line: flow cytometry saturation binding on HeLa cells expressing RFP-tagged FcγRIIb (FIG. 61B, right panel).
Sequence of Fcγ-receptor IIb (mice) (P08101 30-330): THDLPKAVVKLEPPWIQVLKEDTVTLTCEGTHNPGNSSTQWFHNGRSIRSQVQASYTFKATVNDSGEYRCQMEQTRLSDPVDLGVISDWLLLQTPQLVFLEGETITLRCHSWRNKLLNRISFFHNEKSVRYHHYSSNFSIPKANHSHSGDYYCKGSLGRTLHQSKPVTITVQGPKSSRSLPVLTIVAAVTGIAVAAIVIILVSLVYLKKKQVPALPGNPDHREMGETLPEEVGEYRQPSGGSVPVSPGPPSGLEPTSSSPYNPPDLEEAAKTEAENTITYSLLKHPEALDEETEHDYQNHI

Sequence of Fcγ-receptor I (mice) (P26151 25-404): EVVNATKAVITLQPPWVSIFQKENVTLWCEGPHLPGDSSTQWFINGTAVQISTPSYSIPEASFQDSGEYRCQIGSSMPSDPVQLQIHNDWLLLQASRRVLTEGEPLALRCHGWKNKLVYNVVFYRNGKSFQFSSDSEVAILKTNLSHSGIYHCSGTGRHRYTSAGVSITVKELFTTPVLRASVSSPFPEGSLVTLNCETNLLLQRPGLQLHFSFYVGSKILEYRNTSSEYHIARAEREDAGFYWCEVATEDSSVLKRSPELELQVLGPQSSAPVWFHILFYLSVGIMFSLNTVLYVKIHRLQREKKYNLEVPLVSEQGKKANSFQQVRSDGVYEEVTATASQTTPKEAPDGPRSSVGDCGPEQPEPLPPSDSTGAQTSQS
Sequence of Fcγ-receptor IV (mice) (A0A0B4J1G0 21-249): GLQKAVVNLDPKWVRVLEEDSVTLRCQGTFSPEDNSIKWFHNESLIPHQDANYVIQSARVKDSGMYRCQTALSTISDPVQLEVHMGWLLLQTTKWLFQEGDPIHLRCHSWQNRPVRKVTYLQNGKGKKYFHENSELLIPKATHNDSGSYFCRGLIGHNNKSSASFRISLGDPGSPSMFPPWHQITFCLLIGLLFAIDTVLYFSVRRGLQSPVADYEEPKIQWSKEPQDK

Turning to whole rabbit IgG (antibody), the pKd was 6.70 in the assay with Fcγ-receptor I (mice), 5.92 with Fcγ-receptor IV (mice), 5.63 with Fcγ-receptor III (mice) and 6.22 with Fcγ-receptor IIb (mice).
